Results reported in the supplement of paper PMC12636428.

tested on: Saccharomyces cerevisiae; experiment: transcriptional activation domain activity (GFP:mCherry ratio, weighted mean of sorted bins, harmonized to initial dataset scale) (arbitrary fluorescence ratio units); higher = stronger transcriptional activation; conditions: beta-estradiol 1 µM; induction time 4 h
Summary of the method: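 Values are activation activity, found as the read-weighted mean of bin median fluorescence, averaged across barcodes and then mapped linearly onto the initial dataset scale. Barcoded protein tiles fused to an estradiol-inducible synthetic transcription factor were integrated at the URA3 locus of GFP-reporter yeast diploids. Cells were induced for 4 hours at 30 °C with 1 uM beta-estradiol in SC, sorted into 8 bins by GFP:mCherry ratio, and barcode-sequenced, with tiles under 50 reads discarded.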

Row | Sequence | transcriptional activation domain activity
1 | TPSSLLHLFPRVQEFLLFYSIHLSISWVWSCLILFYDVSFTIFSIFIILLLFL | 60300
2 | AVPGEVTEAEANGEAKAEGAAATTDEAAKPKKKKKSKSRKAKKTEDGTAPEEG | 37900
3 | HVGRLMPIIAYFRAVIKCIEMLGVKRPVLVCPLSSFHGGFYVGGLMFQCVDRK | 62600
4 | MVLLSKIVWVICGVTLVSTDFDHAQRRLRGSLLTSLTLYLLIVMCSRWSLVES | 72400
5 | ASGAKTVVKKEPASATPEPAPKQAEVKKPAAAEAAPVPAAKAAPALASAAAAA | 43400
6 | DLLVLLRKCREVALRIIQKESCFNVLNLRRELVSNLLLSFWVVGQSLTTKVPM | 33000
7 | IRSSSHLFPISPFYFVFLFWSSFSVFTMLLLPPTIPRSNQFRAFSSFLWFSWI | 67000
8 | MFTWNRMKVLTVHAPCRTGGLARLFYNFCIKHPAMNIAWWIDEILFPLYHLAR | 53100
9 | LCRLWGAWGLFTFGLGVLLSAINMRMVLFYRVFITVNLTARSNSKIVNFFRKF | 51100
10 | ERPFFALVVCGEYAHLSPETRVKVAQLLLRCLPAPNLSLLVYLLSFLSHFQHA | 62200
11 | MTNRLHIVCHICVFYGYILMFQAITSYHYFILLCILILILHLLTFILVYLYKD | 38400
12 | TGDDDAAKTTPKKRGDADGTPKTAKSTPRKRKTKAEGDGECSPKKRGRKTKVV | 36500
13 | NADGMDGEKFYKSIDSAYGFANSSLVHLLLHDQKLLMRLRYLRRLFFGAESDW | 48800
14 | YLPTLPDAFPFGADIGSLDAISNIPWMSWNPVMAHFSFPWFMDELEMPLELPD | 102000
15 | AATSEATTVFWHDPSGFVDRLLGLTRFWFFTLLRYSYRVYFLASRERSRKPLS | 66100
16 | MVVILYFFFYIFIKNRLGLVRVIFLFLVYHIQLLVLFFFGPFLPLVLLLLLLL | 35900
17 | GASYVIFCLRYYYKGKRRRLTNRLVAYKRALLLVQFVFTHHKWPSYIVILESY | 46200
18 | GAEEGAKEKAGEVAKKRKREVAAAVEDEEGGQPKAEKVRTKKGGGKSKEKKDS | 27400
19 | MLFVFAQLHQVPLSEYFLLGCLYWFFYHIIFSSIFRPSHSIGMASGLPMLYTP | 45000
20 | MLYFFFFYVYNVNIKQYLSIIMILFINGFSFYIYFLFHFLYIFFFFFLTITLS | 88500
21 | MEVGSAAVAGPVLAAAHVPRKRRRPALSCEQCRKRKVKCDRTSPCGQCTRSKG | 32100

Row | Sequence | transcriptional activation domain activity
22 | AIEEIRQDNESRQRENRVVYDRTDKDNERNESLNHQQGIRLVIIDSIHQPVTT | 45700
23 | MYRWISSIDAICVHLWGYMKNLACLLLTHIFYCLASMCLLLVDTLITGVGNIP | 61100
24 | AQEAIAEQGEERGDGAGQEKAPVGKRAAEDPAAAPRGSAKRKADKGERSGAEQ | 7850
25 | SPDDFDQTLPLDLSDENITEVAYLPENQHSVLSSTGISNEHTKLFLILNEIIS | 63000
26 | MIHSIAVYIMLISSTLTHSLISLLFYILSLYVGIFYTYHILFKVLFICQWFLF | 76200
27 | YVRRARGYVMYGLFQLMLRFLLAGFFFFSFRGGDMGIGCGYRLLLLLFFFFIY | 35800
28 | LILGLVHFLYVFFVQIFSHNFTLIPLALDCNFTWEYSVTFVWIGLHTLVAFPI | 54500
29 | TTLVNTTAPYFPYSFSALEGSTFNGFSFDQTMFDLFLEVWEQTDPLMNYLFDF | 162000
30 | LSLLVLGCWIPCIVVMEGYLRSLTFESFPYPGLYCFTSQGSHIVYLCWVLVAV | 46200
31 | GEVTQKTRKGSTKHAQRATSGKASEKRRELSRKRKGRRKENARADDGTGEEEE | 17400
32 | TPSTCLSFLPFFPLLLPLFFSFPLSLIFFLCNFSFQFFFSSCFLSFYLFVVSF | 66100
33 | MLSLIFLFMIPYIHDNIFISYSPITKFMHLFIPFIIITNIFLFYTYFSILLSL | 37600
34 | MCFEFHPFSTSMFYLLSILFLDLSFWLSFYFFMSIVHSVALEFLFVFSLNFFV | 42600
35 | QNESERLGPPKKKRRRQALSCTECKRRKIKCDRTHPCGPCARRSEPEKCQWHV | 27600
36 | LWPLPVITRYIIGISLLVSMLNFMGLLHLKCSSPSYVIHRLEIANLLMSPFLF | 46200
37 | GEDSTRSAKKPTNKRKKASTAGDEGRETKARKTAKGRAGTRVRKGRGAKTSSS | 20500
38 | TTWLAHSKKKNCDVCKHPYSFTKVYATDMPTRLPPVLLLRRIAQQSFFAMVFA | 44800
39 | MERNGNVVWILFWHFHLLFFWAMEKSFDFLHSKTLSPFWFITYFLYLLILFYL | 31900
40 | LLQSLKRTTEIPVKDAFLGLLRADACFCIYRMLRCTNVNLPICRLTGLLDVIR | 61400
41 | WWLRINLNICISYWIVATGVVVVYDWVLTLYGACQILLVMQMFVLGPCLILSV | 46900
42 | YCAINCGGIDGLSLFMKIQWIANLDYLDIELLFGGIYYYFVCLLLVLLLLLWL | 42700

Row | Sequence | transcriptional activation domain activity
43 | IMYTSHHDPKHCFEETRDGTLKVHVIGDWLPRGIFGKMYILFAILRQLVLVLW | 74900
44 | SSPSIQTASSVSTVLVVGSNDKTVKDVGEGLKTKLGVKGGGKGPRWSGKFIGV | 19700
45 | LRHICLLLSIWSKHLIERLKKLPANVRLTIVQALVRFVIPKLHIYGHKLLCQL | 44500
46 | MLIVSRAGFLAFLLCYLHFCSVVVHVFSLPIGQPVTGYGNGNSVNPRSPIVPS | 52100
47 | LFFIAVSQLGFVCSYLVFISGNLVNVVDVLSSCAAHLDQKYYIWIPLILVLPL | 59900
48 | KLIFIFFFFYFFSFFVLLLLLLFLLLLFLPLLMATSACMLGLMFDKLPFFSNI | 46300
49 | TEAPPAPAPEGGDDEEDGEGDEGGEAAAGGKKKKKKKKPAEKKVPEAPAPKKG | 15400
50 | GGTRRSSNQFGKRNTVALHPVINDFVGTVDSDSLVTAYKPFLASDFIGRGYDD | 28300
51 | LRCVGFILYLLLLIGKIMAFKEIDLLQEHQNFWAKVIYNARGSNRSWDWLSMI | 59600
52 | MGLIIYLGHMGCLMPRDDPTLFTIIHTNGIHHVCIVFCSCAISVHPWQQLLCH | 29000
53 | SDEEEKPKPKQGKKKAKAPKKEEEFEGEPEEEEKPKPKKTNGRKKAVKAEEED | 36300
54 | ERQGRGQREERRREDHSRTRVPQRQGQEQREERRREDQYSRQEQQSQGLGQRK | 42100
55 | VSTMLCYLNYCRTDVTVPTNSNPIFKLDNSLFLRLILLCNINLLLLLPFGLYL | 47100
56 | DLLEDDGQPSSATQKSMKRANRKRQSQKNRIVHLLNRTRRALGVSRAALILLL | 57500
57 | GEEGDKPKRGRKRKEAPKDDGEDADDAEAPAAKKAKPASKPASKAAATKPASK | 34200
58 | MILWARAWISLFLFLYLLFYLFVFSLDIPPFLLYTFFIFILLLCVFACTYRHK | 49200
59 | RGSVESDLIILAMTCTLDILMHLPRSVFYRRQLDLFLWLLRVIPSVKTTNSLN | 41400
60 | KWLCYVELMNILTLGWPLSNIHFYICKYCAGWFRKYNYLFGTGINGGAQIFVL | 66700
61 | SDEEGEMADRLADDDLDVSVLKTAKELAETAALYRIRNRRPTAHLVLPRVVEG | 40200
